Consider one substance from US20220275090A1, “Combination Therapies with Anti-CD38 Antibodies and PARP or Adenosine Receptor Inhibitors” (Janssen Biotech, Inc., priority 2021, published 2022).

In this assay the target is T1, mouse CD38 (Mus musculus, UniProt P56528).
T1 sequence (P56528 1-304): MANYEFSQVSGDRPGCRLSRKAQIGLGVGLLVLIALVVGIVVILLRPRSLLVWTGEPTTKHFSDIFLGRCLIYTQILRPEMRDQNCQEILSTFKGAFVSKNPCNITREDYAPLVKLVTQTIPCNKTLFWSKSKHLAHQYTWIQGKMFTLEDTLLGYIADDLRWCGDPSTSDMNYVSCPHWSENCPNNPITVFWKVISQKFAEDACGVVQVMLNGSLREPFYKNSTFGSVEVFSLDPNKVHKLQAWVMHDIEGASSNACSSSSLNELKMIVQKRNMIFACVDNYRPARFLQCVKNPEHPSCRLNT
Kind of assay: Binding to mouse CD38 (statement).

In the case of “Daratumumab: anti-CD38 antibody of IgG1/κ subtype; heavy chain SEQ ID NO: 12, light chain SEQ ID NO: 13”, the “binding to mouse CD38” value is on record as “does not bind”.
